Consider three molecules from patent US20230374148A1, “BINDING MOLECULES THAT MULTIMERISE CD45” (UCB BIOPHARMA SRL, priority 2020, published 2023).

Like-named read-outs stand apart in the source and are kept apart here.

One test deals with T1, CD45 D1-D4 (Homo sapiens, UniProt P08575).
T1 construct: extracellular domain of CD45 (UniProtKB—P08575, residue positions 225-573); TEV cleavage site (C); 10-His tag (C); made in house; host or cells: HEK293
T1 sequence (P08575 225-573): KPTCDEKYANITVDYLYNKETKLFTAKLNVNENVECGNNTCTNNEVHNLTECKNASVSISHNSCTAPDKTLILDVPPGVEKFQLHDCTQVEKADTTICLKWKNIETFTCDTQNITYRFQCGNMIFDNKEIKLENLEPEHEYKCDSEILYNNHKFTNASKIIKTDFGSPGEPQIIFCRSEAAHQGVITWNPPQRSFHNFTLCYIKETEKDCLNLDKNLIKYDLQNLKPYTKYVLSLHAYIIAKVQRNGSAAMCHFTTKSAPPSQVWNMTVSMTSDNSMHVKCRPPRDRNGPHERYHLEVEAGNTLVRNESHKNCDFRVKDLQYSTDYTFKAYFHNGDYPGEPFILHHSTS
The test is described as follows: Surface plasmon resonance (Biacore) affinity of Fabs. The settings on record: 25° C.; for Ka: association constant, CD45 D1-D4 50 nM to 0.05 nM. The test is classed as binding. The protocol:
Surface plasmon resonance (SPR) experiments were carried out at 25° C. on a Biacore 3000 system using CM5 sensor chips (GE Healthcare Bio-Sciences AB, Uppsala, Sweden) and HBS-EP running buffer (10 mM HEPES, 150 mM NaCl, EDTA 2 mM and 0.005% (v/v) P20, pH 7.4). 4133 rabbit Fab and 6294 mouse Fab were captured using polyclonal goat F(ab)2 fragment anti-rabbit F(ab)2, (Jackson Labs product code #111-006-047) and polyclonal goat F(ab)2 fragment anti-mouse F(ab)2, (Jackson Labs product code #115-006-072), respectively. Covalent immobilization of the capturing antibody was achieved by standard amine coupling chemistry to a level of 1000-3000 response units (RU).
CD45 D1-D4 was titrated over the captured purified antibody from 50 nM to 0.05 nM. Each assay cycle consisted of first capturing the antibody Fab fragment using a 1-min injection at a flow rate of 10 μl/min, followed by an association phase consisting of a 3-min injection of CD45 D1-D4 at a flow rate of 30 μl/min. The subsequent dissociation phase was monitored for at least 3 min. After each cycle, the capture surface was regenerated at a flow rate of 10 μl/min with a 1-min injection of 40 mM HCl followed by a 30-sec injection of 5 mM NaOH. A blank flow-cell was used for reference subtraction and buffer-blank injections were included to subtract instrument noise and drift. Kinetic parameters were determined using BIAevaluation software (version 4.1.1).
For orientation: Surface plasmon resonance follows binding to a sensor surface in real time, without labels.

Test [1] addresses T2, human CD45 on cells (PBMC, whole blood cells, macrophages, leukaemia and lymphoma cell lines) (human, UniProt P08575 26-1306).
T2 sequence: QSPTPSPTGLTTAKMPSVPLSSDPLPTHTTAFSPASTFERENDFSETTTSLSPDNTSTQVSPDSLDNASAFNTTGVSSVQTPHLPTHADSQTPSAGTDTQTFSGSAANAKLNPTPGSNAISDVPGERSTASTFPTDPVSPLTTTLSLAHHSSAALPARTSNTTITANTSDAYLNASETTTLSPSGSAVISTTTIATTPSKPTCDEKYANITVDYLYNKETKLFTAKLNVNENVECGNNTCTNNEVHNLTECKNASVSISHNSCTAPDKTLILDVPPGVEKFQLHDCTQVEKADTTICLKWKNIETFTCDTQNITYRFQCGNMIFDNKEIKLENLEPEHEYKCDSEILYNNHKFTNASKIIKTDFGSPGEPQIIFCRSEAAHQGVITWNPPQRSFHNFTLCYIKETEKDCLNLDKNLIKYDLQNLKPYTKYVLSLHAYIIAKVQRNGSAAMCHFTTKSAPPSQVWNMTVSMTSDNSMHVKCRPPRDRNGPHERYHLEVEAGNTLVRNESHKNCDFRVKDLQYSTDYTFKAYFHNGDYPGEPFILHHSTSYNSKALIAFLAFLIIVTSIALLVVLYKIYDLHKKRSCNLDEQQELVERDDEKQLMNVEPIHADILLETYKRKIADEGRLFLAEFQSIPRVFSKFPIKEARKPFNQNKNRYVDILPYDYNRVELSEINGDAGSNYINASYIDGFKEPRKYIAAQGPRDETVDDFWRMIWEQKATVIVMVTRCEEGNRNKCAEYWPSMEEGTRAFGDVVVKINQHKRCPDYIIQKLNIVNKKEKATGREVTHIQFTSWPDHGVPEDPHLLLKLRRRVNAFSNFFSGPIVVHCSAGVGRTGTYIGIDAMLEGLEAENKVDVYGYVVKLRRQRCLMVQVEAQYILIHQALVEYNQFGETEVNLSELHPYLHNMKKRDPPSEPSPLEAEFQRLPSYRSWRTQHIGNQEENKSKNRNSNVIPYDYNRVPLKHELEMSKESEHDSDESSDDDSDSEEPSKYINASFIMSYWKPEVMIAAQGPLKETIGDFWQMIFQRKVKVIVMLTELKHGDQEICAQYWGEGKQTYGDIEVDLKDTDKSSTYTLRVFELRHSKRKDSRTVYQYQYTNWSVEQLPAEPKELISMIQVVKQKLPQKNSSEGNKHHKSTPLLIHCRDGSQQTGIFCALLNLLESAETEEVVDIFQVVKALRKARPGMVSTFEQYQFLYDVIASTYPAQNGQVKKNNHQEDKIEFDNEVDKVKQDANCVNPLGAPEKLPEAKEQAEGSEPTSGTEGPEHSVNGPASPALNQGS
The test is described as follows: cell-based or functional assay.

B1: 4133 Fab: Fab fragment of rabbit anti-CD45 antibody 4133 (antibody)
heavy: QEQLVESGGGLVQPEGSLTLTCTASGFSFSGNYYMCWVRQAPGKGLEWIGCLYTGSSGSTYYASWAKGRFTISKTSSTTVTLQMTSLTAADTATYFCARDLGYEIDGYGGLWGQGTLVTVSSGQPKAPSVFPLAPCCGDTPSSTVTLGCLVKGYLPEPVTVTWNSGTLTNGVRTFPSVRQSSGLYSLSSVVSVTSSSQPVTCNVAHPATNTKVDKTVAPSTCSKP
light: AQVLTQTPSPVSAVVGGTVSISCQASQSVYNNNNLSWYQQKPGQPPKLLIYDASKLASGVPSRFKGSGSGTQFTLTISGVQCDDAATYYCLGGYYSSGWYFAFGGGTKVVVKRTPVAPTVLIFPPAADQVATGTVTIVCVANKYFPDVTVTWEVDGTTQTTGIENSKTPQNSADCTYNLSSTLTLTSTQYNSHKEYTCKVTQGTTSVVQSFNRGDC
Consider B1, for which the Kd with CD45 D1-D4 (SPR, read-out: affinity) came out at 61 nM. Moreover, in the test with CD45 D1-D4 (affinity constant, captured Fab, read-out: KD), the Kd worked out at 61 nM. In addition, in the test with CD45 D1-D4 (captured Fab), the “Ka” value stood at 570000 M⁻¹ s⁻¹ and the “Dissociation rate constant koff” value came out at 0.035 s⁻¹.

B2: 6294 Fab: Fab fragment of mouse anti-CD45 antibody 6294 (antibody, V domains shown)
VH: EVQLVESGAELARPGASVKMSCKASGYTFTSYTMHWVKQRPGQGLEWIGYINPSSGYTEYNQKFKDKTTLTADKSSSTAYLQLSSLTSEDSAVYYCARVGDGFYPSWLAYWGQGTLVTVSS
VL: DIQMTQSPKFLLVSAGDRVTITCKASQSVRNDVAWYQQKPGQSPKLLIFYASKRYTGVPDRFTGSGYGTDFTFTISTVQAEDLAVYFCQQDYSSPTTFGGGTKLEIK
In the case of B2, the Kd in the test with CD45 D1-D4 (SPR, read-out: affinity) is 0.085 nM. In the test with CD45 D1-D4 (captured Fab), the “Ka” value is 2.6e+06 M⁻¹ s⁻¹ and the “Dissociation rate constant koff” value is 0.00022 s⁻¹.

B3: 4133-6294 IgG4P FALA Knob-in-Hole (bispecific antibody)
heavy 1: QEQLVESGGGLVQPEGSLTLTCTASGFSFSGNYYMCWVRQAPGKGLEWIGCLYTGSSGSTYYASWAKGRFTISKTSSTTVTLQMTSLTAADTATYFCARDLGYEIDGYGGLWGQGTLVTVSSASTKGPSVFPLAPCSRSTSESTAALGCLVKDYFPEPVTVSWNSGALTSGVHTFPAVLQSSGLYSLSSVVTVPSSSLGTKTYTCNVDHKPSNTKVDKRVESKYGPPCPPCPSAPEAAGGPSVFLFPPKPKDTLMISRTPEVTCVVVDVSQEDPEVQFNWYVDGVEVHNAKTKPREEQFNSTYRVVSVLTVLHQDWLNGKEYKCKVSNKGLPSSIEKTISKAKTGQPREPQVYTLPPSQEEMTKNQVSLWCLVKGFYPSDIAVEWESNGQPENNYKTTPPVLDSDGSFFLYSRLTVDKSRWQEGNVFSCSVMHEALHNHYTQKSLSLSLGK
heavy 2: EVQLVESGAELARPGASVKMSCKASGYTFTSYTMHWVKQRPGQGLEWIGYINPSSGYTEYNQKFKDKTTLTADKSSSTAYLQLSSLTSEDSAVYYCARVGDGFYPSWLAYWGQGTLVTVSSASTKGPSVFPLAPCSRSTSESTAALGCLVKDYFPEPVTVSWNSGALTSGVHTFPAVLQSSGLYSLSSVVTVPSSSLGTKTYTCNVDHKPSNTKVDKRVESKYGPPCPPCPAPEAAGGPSVFLFPPKPKDTLMISRTPEVTCVVVDVSQEDPEVQFNWYVDGVEVHNAKTKPREEQFNSTYRVVSVLTVLHQDWLNGKEYKCKVSNKGLPSSIEKTISKAKGQPREPQVYTLPPSQEEMTKNQVSLSCAVKGFYPSDIAVEWESNGQPENNYKTTPPVLDSDGSFFLVSRLTVDKSRWQEGNVFSCSVMHEALHNHYTQKSLSLSLGK
light 1: AQVLTQTPSPVSAVVGGTVSISCQASQSVYNNNNLSWYQQKPGQPPKLLIYDASKLASGVPSRFKGSGSGTQFTLTISGVQCDDAATYYCLGGYYSSGWYFAFGGGTKVVVKRTVAAPSVFIFPPSDEQLKSGTASVVCLLNNFYPREAKVQWKVDNALQSGNSQESVTEQDSKDSTYSLSSTLTLSKADYEKHKVYACEVTHQGLSSPVTKSFNRGEC
light 2: DIQMTQSPKFLLVSAGDRVTITCKASQSVRNDVAWYQQKPGQSPKLLIFYASKRYTGVPDRFTGSGYGTDFTFTISTVQAEDLAVYFCQQDYSSPTTFGGGTKLEIKRTVAAPSVFIFPPSDEQLKSGTASVVCLLNNFYPREAKVQWKVDNALQSGNSQESVTEQDSKDSTYSLSSTLTLSKADYEKHKVYACEVTHQGLSSPVTKSFNRGEC
Turning to B3, in test [1], the “EC50 of reduction of lymphocytes in PBMC, 24 h (UCB Cone-802)” value was 0.09 nM and the “EC50 of reduction of lymphocytes in PBMC, 24 h (UCB Cone-811)” value is 0.17 nM.
